This is an account of results in publication PMC9574498.

In this experiment the target is human P2X7R ballast domain (P2X7BD, residues 395–595) (human) (UniProt Q99572). Description: cross-linking.

Values joined by “and” are separate entries in the source; they are usually repeats but may differ in a detail not shown here. Equal values may be shown once.

human P2X7R ballast domain (P2X7BD, residues 395–595) (human), sequence (Q99572 395-595): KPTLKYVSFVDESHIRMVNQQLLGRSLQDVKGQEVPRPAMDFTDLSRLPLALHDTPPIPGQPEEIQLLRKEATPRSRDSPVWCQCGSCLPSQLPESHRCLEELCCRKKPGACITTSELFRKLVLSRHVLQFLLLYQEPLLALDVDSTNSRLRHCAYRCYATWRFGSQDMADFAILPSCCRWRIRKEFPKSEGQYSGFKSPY

As for “human calmodulin (Ca^2+-CaM; apo-CaM in EDTA) (from UniProt P0DP23 1-149) (natural protein)”, the stoichiometry N (Ca^2+-CaM per P2X7BD) was 1 and 2.
